Tests used:
Type in all cases: cell-based, human
Cdt1 = experiment: Co-immunoprecipitation of Cdt1 with FLAG-tagged Cdt2; settings: anti-FLAG IP, HEK293, with or without UV irradiation
Source text: Figure 3. […] HEK293 cells were transfected with plasmids expressing the indicated Cdt2 fused to a C-terminal FLAG tag, cross-linked, and precipitated with anti-FLAG antibodies (arrows). […] The bands in the blank lanes for Cul4A blotting correspond to the cross-reacting bands to pre-stained marker. […] HEK293 cells were transfected with the indicated plasmids and treated as in A. * indicates nonspecific bands derived from IgGs. (C) A schematic drawing of the Cdt2 domain structure highlighting the C-terminal PIP box and a sequence alignment of PIP boxes in various organisms. The alanine-changed PIP box mutant of Cdt2 was shown (PIP-3A) together with Cdt1 PIP box. (D) HEK293 cells were transfected with Cdt2^WT or PIP box mutant (Cdt2^PIP-3A) C-terminally fused to a FLAG tag, treated as in B, and Cdt2 was precipitated with anti-FLAG resin.
Next, we examined the interaction of CRL4^Cdt2 ligase with its target protein Cdt1, using HEK293 cells alone and cells transfected with Cdt2^WT or Cdt2^PIP-3A, with or without UV irradiation. […]

[1] = test system: chromatin-containing fraction, HEK293 cells; experiment: Chromatin fractionation of Cdt2; settings: stable HEK293, Western blot
Description: Figure 6. The Cdt2 PIP box is important for its recruitment to DNA damage sites and replication foci and for poly-ubiquitination activity. (A) HEK293 and stable Cdt2^WT or Cdt2^PIP-3A cells were locally UV irradiated, and stained for XPA and FLAG (Cdt2). XPA-positive spots were examined for FLAG signal, and its frequency was counted (%). More than 50 spots were examined. bar:10 μm. […] Bar: 10 μm. […] (D) Whole-cell extracts were prepared from HEK293 and stably transfected cells of Cdt2^WT or Cdt2^PIP-3A cells, separated into soluble (Sup) and chromatin-containing insoluble (Ppt) fractions, and were examined for indicated proteins. The asterisk indicates nonspecific bands. (E) HEK293 and stably transfected cells of Cdt2^WT or Cdt2^PIP-3A were treated with MG132 for 3 h. Whole-cell extracts (WCE) were prepared, separated into soluble (Sup) and insoluble (Ppt) fractions, and blotted with the indicated antibodies.
Cell extracts were prepared using 0.1% Triton X-100–containing mCSK buffer (200 μg of total protein in 400–800 μl). After centrifugation (17,900g for 10 min at 4°C), soluble and chromatin-containing pellet fractions were obtained. The pellets were washed with ice-cold 0.1% Triton X-100–containing mCSK buffer and subsequently suspended in SDS sample buffer.

[2] = test system: Cdt1 degradation, U2OS cells; experiment: Cdt1 degradation after UV irradiation in U2OS cells; settings: for Cdt1 degradation after UV: siCdt2 (3′ UTR), UV 20 J/m^2
Source text: Because the poly-ubiquitination activity of Cdt2^PIP-3A was reduced, we monitored the degradation of Cdt1 after UV irradiation. Asynchronously growing control U2OS cells and cells expressing Cdt2^WT or Cdt2^PIP-3A (Fig S7) were depleted of endogenous Cdt2 using an siRNA targeted to the 3′ UTR, and irradiated with UV.
Figure 7. The Cdt2 PIP box plays an important role for rapid Cdt1 degradation after UV irradiation. (A) U2OS cells and U2OS cells stably expressing Cdt2^WT-3FLAG or Cdt2^PIP-3A-3FLAG were transfected with siCdt2 targeted to the 3′ UTR or control siLuc for 48 h, irradiated with UV (+, 20 J/m^2) or not (−), and collected at the indicated time points (min) for Western blotting. (B) The protein levels were measured and the relative amounts of Cdt1, normalized to RCC1, after UV irradiation were shown, UV (−) level set as 1.0. Error bars represent SD from three independent experiments. (C) Cells were transfected with siCdt2 or control siLuc for 72 h, irradiated with UV (+, 5 J/m^2) or not (−) (not shown), and 1h later fixed for staining with Cdt1 and cyclinA antibodies. (D) The frequency of Cdt1-positive (+) cells among the total cells in (C) was shown (%) (average of two independent experiments).
Double-stranded RNAs were transfected at 100 nM using Oligofectamine (Invitrogen) or HiPerFect (QIAGEN). Twenty-four hours after the first transfection, a second transfection was performed and cells were cultured for two more days. The following siRNAs were made by Dharmacon: Skp2; […], Cdt2_3′UTR; […]. The siRNA for siLuc, known as GL2, was used as a control siRNA. For Cdt1 silencing in Fig 1A and B, unsychronized HeLa cells were transfected twice with 200 nM of Cdt1 siRNA or control luciferase siRNA using Lipofectamine 2000 with a time interval of 24 h and were analysed 48 h after the second transfection. In synchronized MCF7 cells (Fig 1D), a single transfection with 200 nM of Cdt1 siRNA or control luciferase siRNA using Lipofectamine 2000 5 h after release from thymidine and before adding nocodazole was carried out. The Cdt1 siRNA was made by MWG: […].

Q: For “Cdt2: Cdt2 tagged with GFP, transiently expressed in MCF7 cells”, which “co-precipitation of PCNA and Cdt1” value (Cdt1) is on record?
A: The value was “both PCNA and Cdt1 were precipitated, and their amounts were notably increased after UV irradiation”.

Q: And the “recovery in chromatin-containing fraction” value [1]?
A: Its value is “recovered in a chromatin-containing fraction”.

Q: What about the “Cdt1 degradation after UV” value [2] of the same molecule?
A: The value was “restored Cdt1 degradation to similar kinetics to that of control siRNA-transfected U2OS cells”.

B1: Cdt2^PIP-3A: Cdt2 with I709, Y712, and F713 all mutated to alanine (protein, UniProt Q9NZJ0 1-730, looked up, variant I709A Y712A F713A)
Denticleless protein homolog: MLFNSVLRQPQLGVLRNGWSSQYPLQSLLTGYQCSGNDEHTSYGETGVPVPPFGCTFSSAPNMEHVLAVANEEGFVRLYNTESQSFRKKCFKEWMAHWNAVFDLAWVPGELKLVTAAGDQTAKFWDVKAGELIGTCKGHQCSLKSVAFSKFEKAVFCTGGRDGNIMVWDTRCNKKDGFYRQVNQISGAHNTSDKQTPSKPKKKQNSKGLAPSVDFQQSVTVVLFQDENTLVSAGAVDGIIKVWDLRKNYTAYRQEPIASKSFLYPGSSTRKLGYSSLILDSTGSTLFANCTDDNIYMFNMTGLKTSPVAIFNGHQNSTFYVKSSLSPDDQFLVSGSSDEAAYIWKVSTPWQPPTVLLGHSQEVTSVCWCPSDFTKIATCSDDNTLKIWRLNRGLEEKPGGDKLSTVGWASQKKKESRPGLVTVTSSQSTPAKAPRAKCNPSNSSPSSAACAPSCAGDLPLPSNTPTFSIKTSPAKARSPINRRGSVSSVSPKPPSSFKMSIRNWVTRTPSSSPPITPPASETKIMSPRKALIPVSQKSSQAEACSESRNRVKRRLDSSCLESVKQKCVKSCNCVTELDGQVENLHLDLCCLAGNQEDLSKDSLGPTKSSKIEGAGTSISEPPSPISPYASESCGTLPLPLRPCGEGSEMVGKENSSPENKNWLLAMAAKRKAENPSPRSPSSQTPNSRRQSGKKLPSPVTITPSSMRKACTAAHRKSQEDFCGPEHSTEL
modifications: FLAG tag
notes: Cdt2 with I709, Y712, and F713 all mutated to alanine
Q: How did the “co-precipitation of PCNA and Cdt1” value (Cdt1) turn out when B1 was run?
A: The value was “neither Cdt1 nor PCNA co-precipitated well”.

Q: What about the “recovery in chromatin-containing fraction” value [1] of the same molecule?
A: The value was “undetectable”.

Q: And the “Cdt1 degradation after UV” value [2]?
A: The value was “much less effective in rescuing Cdt2 depletion”.

Q: What about the “Cdt1 stability after low-dose UV” value ([2]; siCdt2, UV 5 J/m^2, 1 h post UV) of the same molecule?
A: Its value is “Cdt1 remained stable 1 h post UV irradiation”.
